Measured values as given in patent US20080064629A1, “Amphiregulin as a Protective Agent in Acute Hepatic Injury” (priority 2004, published 2008).

Experiments:
[1] = test system: mouse hepatocytes in primary culture; assay: Apoptosis induced by actinomycin D and Jo2 antibody in mouse hepatocytes in primary culture; assay type: cell-based
Description: In order to determine whether the in vivo antiapoptotic effects of AR could be mediated by direct action of AR on liver parenchymal cells, the inventors used mouse hepatocytes in primary culture. It has been reported that hepatocytes exposed to Jo-2 antibodies undergo apoptosis effectively in presence of actinomycin D [(5), (6), (33) Ni, R., Tomita, Y., Matsuda, K., Ichiara, A., Ishimura, K., Ogasawara, J., Nagata, S. 1994. Fas-mediated apoptosis in primary cultured mouse hepatocytes. Exp. Cell Res. 215: 332-337]. Hepatocytes were pretreated with different concentrations of AR during […] before addition of actinomycin D and Jo2 antibody. Measurements of apoptosis and related molecular events, were made 18 h later. […] Likewise, they found antiapoptotic protein Bcl-xL to be induced by treatment with AR in mouse hepatocytes treated with Jo2 (FIG. 4B). In order to identify the AR antiapoptotic signaling mechanisms, PI-3K/Akt and ERK1/2 pathways were studied, as they are general mediators of cell survival [(4), (6)]. […] A key signaling molecule implicated in protection against liver damage induced by Fas is STAT3 [(34) Shen, Y., Devgan, G., Darnell, J. E., Bromberg, J. F. 2001. Constitutively activated Stat3 protects fibroblasts from serum withdrawal and UV-induced apoptosis and antagonizes the proapoptotic effects of activated Statl. Proc. Natl. Acad. Sci. USA. 98: 1543-1548. (35) Haga, S., Terui, K., Zhang, H. Q., Enosawa, S., Ogawa, W., Inoue, H., Okuyama, T., Takeda, K., Akira, S., Ogino, T., et al. 2003. Stat3 protects against Fas-induced liver injury by redox-dependent and -independent mechanisms. J. Clin. Invest. 112: 989-998].
(§1) Hepatocytes were isolated from male Wistar rats (150 g) and C57/BL6 mice (20 g) by perfusion with collagenase (Gibco-BRL, Paisley, UK) as described elsewhere [(18), (20)]. Cells (5×10^5 cells per well) were plated onto 6-well plates coated with collagen (type I collagen, Collaborative Biomedical, Bedford, Mass., USA). Cultures were maintained in MEM medium supplemented with 10% fetal calf serum (FCS), non-essential amino acids, glutamine 2 mM and antibiotics (all supplied by Gibco-BRL). After 2 h of incubation, the medium was removed and cells were again cultured in the same medium with 5% FCS. Where applicable, hepatocytes were treated with IL-1β or TNFα from Roche (Mannheim, Germany), HGF or forskolin from Calbiochem (San Diego, Calif., USA), IL6 from RD Systems (Wiesbaden-Nordenstadt, Germany), or PGE2 from Alexis QBiogene (Carlsbad, Calif., USA).
Apoptosis was induced in cultured mouse hepatocytes by treatment with 0.5 μg/ml of Jo2 antibody and 0.05 μg/ml of actinomycin D as described elsewhere (5). Where applicable, the hepatocytes were treated with AR 6 h before the addition of Jo2 antibody and actinomycin D. Apoptosis was estimated by determining soluble histone-DNA complexes using the Cell Death Detection Assay (Roche). ELISA tests for determining cell death were carried out following the manufacturer's instructions. The specific enrichment of mono- and oligonucleosomes released in the cytoplasm (enrichment factor, EF) was calculated as the ratio between the absorbance values of the samples corresponding to treated cells and control cells. […]
Caspase-3 activity in mouse hepatocytes and liver tissue lysates was assessed using the Caspase-3/CPP32 colorimetric assay kit (BioVision, Palo Alto, Calif., USA). […]

[2] = test system: cultured mouse hepatocytes; assay: Antiapoptotic signaling pathways (Western blot of phosphorylation) in cultured mouse hepatocytes; assay type: cell-based; details: AR 20 nM, different times
Experimental: as §1
Homogenates from liver samples and isolated hepatocytes were subjected to Western blot analysis as described elsewhere [(19, (20)]. Antibodies used were: affinity purified and biotinylated polyclonal antibody specifically targeted to murine AR (BAF989)(RD Systems); specific antibodies for the p17 subunit of active caspase-3 (9664S), phosphorylated Akt (Ser473) (9271S) and phosphorylated STAT3 (Tyr^705) (9131S) (Cell Signaling, Beverly, Mass., USA); ERK1/2 (06-182), phosphorylated EGF-R (Tyr^1173)(05-483) and STAT3 (06-596)(Upstate Biotechnology, Charlottesville, Va., USA). All other antibodies were from Santa Cruz Biotechnology (Santa Cruz, Calif., USA): BclxL (sc8392), Bcl2 (sc7382), EGF-R (sc-03), phosphorylated ERK1/2 (Tyr^204) (sc7383), Akt (sc5298), JNK (sc571), and phosphorylated JNK (Thr^183/Tyr^185) (sc6254).

B1: amphiregulin (protein)
chain: SVRVEQVVKPPQNKTESENTSDKPKRKKKGGKNGKNRRNRKKKNPCNAEFQNFCIHGECKYIEHLEAVTCKCQQEYFGERCGEKSMKTHSMIDSSLSK
notes: polypeptide growth factor belonging to the EGF family, ligand of EGF receptor; human recombinant AR (Sigma) used
antiapoptotic protein Bcl-xL (Western blot) ([1]; AR 20 nM, mouse hepatocytes treated with Jo2): induced | proteolysis and activation of caspase-3 induced by Jo2 antibody ([1]; AR 20 nM, mouse hepatocytes treated with actinomycin D and Jo2): significantly inhibited | apoptosis (enrichment factor of mono- and oligonucleosomes) ([1]; increasing concentrations of AR before actinomycin D and Jo2, measured 18 h later): protected from apoptosis by AR in a dose-dependent manner | phosphorylation of Akt [2]: increased phosphorylation | phosphorylation of ERK1/2 [2]: increased phosphorylation | phosphorylation of STAT3 [2]: stimulate phosphorylation
